Molecular target: the molecule itself
Experiment: native MS; ESI-MS under non-denaturing conditions, positive ion mode; cluster-reconstituted [4Fe–4S] RirA, ~30 μM in cluster, 250 mM ammonium acetate pH 7.3; monomer to dimer

B1: Rhizobial iron regulator A (RirA) from Rhizobium leguminosarum (natural protein, UniProt Q9AE46 1-160, looked up)
chain: MRLTKQTNYAVRMLMYCAANDGHLSRIPEIAKAYGVSELFLFKILQPLNKAGLVETVRGRNGGVRLGKPAADISLFDVVRVTEDSFAMAECFEDDGEVECPLVDSCGLNSALRKALNAFFAVLSEYSIDDLVKARPQINFLLGITGEPAYRKPAIVAPAA
notes: RirA, Rhizobium leguminosarum strain 8401 (pRL1JI), rirA gene CAC35510, codon-optimised for E. coli; calculated mass of the monomer 17.4 kDa (apo predicted 17 442 Da, observed 17 441 Da); No tag is mentioned; It carries an iron–sulfur cluster as cofactor: [4Fe–4S] after reconstitution, and mainly [2Fe–2S] after 1 mM EDTA for 2.5 h; Less than 5% of the preparation was truncated, lacking 20 …
- stoichiometry N: 2

Reference: publication PMC5863699, “Sensing iron availability via the fragile [4Fe–4S] cluster of the bacterial transcriptional repressor RirA† †Electronic supplementary information (ESI) available. See DOI: 10.1039/c7sc02801f” (Chemical Science, 2017)
